The chains are these.
B1: GST-Pif1N(56–77) [S. cerevisiae] / Rfa1N(1–132)-4myc [S. cerevisiae] (parent complex)
chain 1: KHPSILSKEDLDLLSDSDDWEE
chain 2: MSSVQLSRGDFHSIFTNKQRYDNPTGGVYQVYNTRKSDGANSNRKNLIMISDGIYHMKALLRNQAASKFQSMELQRGDIIRVIIAEPAIVRERKKYVLLVDDFELVQSRADMVNQTSTFLDNYFSEHPNETL

The variants in this experiment derive from B1. Briefly: GST pull-down followed by myc-specific western blotting, quantified; n = 3 biological replicates; parent: 0.53; read off a plot.
Take chain 1 L11A, chain 1 D12A, chain 1 L13A, chain 1 L14A: the response is ~0.077 % of input.

Source of the values: article PMC11014909 (2024).
